Assay: soluble on expression in E. coli; label from the status in PepcDB or PDB records

Sequence | soluble on expression in E. coli
MPLRILHTSDWHLGRSLFGRSRLHEFEAFLDWLAGTVESRGIELLVVAGDIFDTTTPGNATQKLYYQFLNRIALTPGSPCRHVVITSGNHDSPTFLDAPKELLRAFDVHVLGATTGDPADEVRLLRDRQGSPEAIVCAVPFLRDRDIRTVEPGESLEDKIRKLSDGVSLHYAEVARIAAERRRSLGADIPVIAMGHLFTAGCVTVEEDGVREIYAGALSIVCSTAFPPVFDYVALGHMHVPQRVDKTEHMRYCGSPIPMGFGEAKQQKLVLQVDFEGREPTVTEIEVPCFQPLERLAGSLDELSAAIAALRSAGSNAWLEIDYRGDEAPATVQEAMEQAVAGSLLEIRRIRNNRPLQQALRHSAANETLQQLDPEAVFNRCLEAYGTDESLRPALVESYREVLRSIREEDVMAEKEGKS | not soluble
SSQQRPARKLPSLLLDPTEETVRRRCRDPINVEGLLPSKIRINLEDNVQYVSMRKALKVKRPRFDVSLVYLTRKFMDLVRSAPGGILDLNKVATKLGVRKRRVYDITNVLDGIDLVEKKSKNHIRWIGSDLSNFGAVPQQKKLQEELSDLSAMEDALDELIKDCAQQLFELTDDKENERLAYVTYQDIHSIQAFHEQIVIAVKAPAETRLDVPAPREDSITVHIRSTNGPIDVYLCEVEQGQTSNKRSEGVGTSSSESTHPEGPEEEENPQQSEELLEVSN | soluble
HIKVGFSPEKLQPYTQLPSDFNEFWNKTKAEAARFPLTYTKEYVEKYSTDKIDCYLIRLQLNKQSQCIYGYLFYPKAEGKYPVVLCPPGAGIKTIKGPMRHKYYAEEGCIRFEIEIHGLNPELDEDTFGEISRAFSSRENGYLVNGLDSRENYYMKRVYLACVRSIDLLTSLPEWDGKNVIVQGGSQGGALALITAGLDKRVTACVANHPALSDMAGYKAGRAGGYPHLFKNTVDMDTPAKMKTLAYYDVVNFAKQITVPVYMTWGFNDNTCPPTTSYIVYNVLNCPKEALITPVNEHWTSEDTEYGHLLWIKKHLK | not soluble
MVRVKICGITNLEDALFSVESGADAVGFVFYPKSKRYISPEDARRISVELPPFVFRVGVFVNEEPEKILDVASYVQLNAVQLHGEEPIELCRKIAERILVIKAVGVSNERDMERALNYREFPILLDTKTPEYGGSGKTFDWSLILPYRDRFRYLVLSGGLNPENVRSAIDVVRPFAVDVSSGVEAFPGKKDHDSIKMFIKNAKGL | soluble
MGSDKIHHHHHHVTITNPLPIDRNGEMVEISMAEITGKLQLPDTAQVIVLDENGLEVPYQITYDDMLIFPASVKGDASAVYTIAEGTPQPVDVVACGRQYPERLDDVAWENDRAAYRAYGPALQEKGERAFGYDIWTKSVSEPVVEDRYDGDLNRGISYHVDHGNGMDCYAVGPTLGGGTAALFPDSTIVYPYCYKDCEILDNGPLRFTAKLVYNPLVVKGDSSVIETRIISLDKGSQLNKTVVSFDNLQEITPVVTGIVLHKQNPMGYSFDADAGYIAYADSTENAANNNGVIYIGAVFPATVKGAFAQVFSEKERKERGDALGHVLAVNDYEPGAEYIYYWGSGWSKYGFEADTDWNKYLEEYARKIRNPLAVAIK | not soluble
MGSDKIHHHHHHMNLRNTAVFKFLVLTLGIISCQAYAEDTVIVNDHDISAIKDCWQKNSDDDTDVNVIKSCLRQEYNLVDAQLNKAYGEAYRYIEQVPRTGVKKPDTEQLNLLKKSQRAWLDFRDKECELILSNEDVQDLSDPYSESEWLSCMIIQTNTRTRQLQLYRNSEDFYPSPLTRG | not soluble
MSLASEILPDEFLELFKDLKKPPKKLHYKGNLSLLKQDKIAIIGSRRMSVYTKNCVFSLASMLKNAHLCVVSGGALGVDITASMAAMPNTIGIFANGLDQIYPRTNEKIIKQIYENALALSEYEDDYLPKNYDFLLRNRLVIALSKAVVVAQADIKSGSMQSAKLALELNKPLYVLPQRLGESTATNLLLKENKAKLICDFKEFVSEFASIDMNQDEFLEFCKKGVSVDEALKIYGQKVYEYELEGKISIEGLFIRVLAEGHHHHHH | soluble
MGSDKIHHHHHHMLSVNRIVISAAGGGKTTRVVDQALACEQGQGATALITYTRNNVREIQLKAYERTRTIPSHVEVISWYSFLLRELARPYRSAMHASRVDGIHWVEGKSVPYIPEARTSGHYFFDGSRIYSDKIAKFVCECDRRSGGAIMRRLKQRFRHIIIDEIQDMAGYDLDLLELILKAGVPVTFVGDHRQATFATNNASKNKVFSGPAIIKKFELWKKQGLVEIEYETHTHRCNQTIADLGDGFFPNEPKTVSRNDKVTGHDGVFLVSSADVGEYMKRFAPQVLRYSAATNCDLDEAMNFGESKGLTFERVLIYPHGPARKWLASGDIRHVEKSLTKMYVAVTRARYSVAFVHDGKICSVAATKWVPG | not soluble
LYLEQSDIEGHIGVFGSTGSGKTTTLATIACGAAEAGLPVVVADWHGEYQRLVGGGGCRPRVIDPGREGGVNPLSLGWDYSVKTALLASALGLTEPQHYMLLKLLEEHEPRSLIELHSMVEDVEENSRWDREVKRGLMRRLGPLASRAGRSLVEGEGPPIGGRGLYIVDTGSIGNVQLRKTYSILLAAYLQYKAYSRELGPLLLVVDEAHNMFDGEESFPSIMMAESRKFGLYIALATQNPHLLPLRAVSNTNTKIVHSLRWWRDLESIASALSLPRETASKLPHLGRGEAVVYAPSLGYPVLAKIVPPE | not soluble
MGSDKIHHHHHHMSDIESLGEAAGLFEEPEDFLPPPPKPHFAEYQRSHITKESKSDVKDIKLRLVGTSPLWGHLLWNAGIYTANHLDSHPELIKGKTVLELGAAAALPSVICALNGAQMVVSTDYPDPDLMQNIDYNIKSNVPEDFNNVSTEGYIWGNDYSPLLAHIEKIGNNNGKFDLIILSDLVFNHTEHHKLLQTTKDLLAEKGQALVVFSPHRPKLLEKDLEFFELAKNEFHLVPQLIEMVNWKPMFDEDEETIEVRSRVYAYYLTHEK | not soluble
MGSDKIHHHHHHMMNATPWLTVSRGTAPLLVSIPHTGIDLAGLEPRLVSPWLGRRDCDWWIDKLYDFANDLGATVVHTAISRTVIDVNRDPTGVSLYPGQTTTTLCPTDTFDGDPLYRMGEEPTPSEIDQRRETYFKPYHAALQAEIDRLRGMHEKIVLYDCHSIRSVLPRLFEGTLPVFNLGTNDGKSTDPVLQDKVAAILAATGETWVVNGRFKGGSITRGFGQPQNGVHALQMELSNRGYMREPSEKGSPENWPVPYDPTYAAPIRATLKTILETAIDWARR | not soluble
MNGEVMDELIQKLERVSQTSFIGSGKLMELSELVEMHEADVVIFNSELSATQVRNISKIVDARIIDLEHHHHHH | not soluble
MGHHHHHHSHDDSSEWGNSFFWNQLLHVPLRQHQVSCCDWLLKIICGVVTIRTVYASHKQAKACLVSRVSCERTGTRFHTRGVNDDGHVSNFVETEQMIYMDDGVSSFVQIRGSVPLFWEQPGLQVGSHHLRLHRGLEANAPAFDRHMVLLKEQYGQQVVVNLLGSRGGEEVLNRAFKKLLWASCHAGDTPMINFDFHQFAKGG | not soluble
MNIVPILLIRFYQSFISPLLGPSCKYHPTCSNYAIEAFRQHNFFYASWLTVWRVLRCNPFSKGGYDPVPPKSVKSAGNSKDSKLEHHHHHH | not soluble
MIKKIYFGNDHAAYEIKDQIITHLKQKGYQIIDEGAQAALGSVDYSTYALKVANDVVNDTKNDSIGILLCGTGIGMNIAASKVHGTRVALVYNESSAKLAKEHNNANIITIGARENSLNQILKMIDDFLTSKFLGERHQKRLDIIAKYEKEQNS | soluble
MVKKSYVINWARDLANRGVGVNYDGAFGSQCVDLPFWILGKFFGRPISGNAIDLLNSAKAAGYQVIYDAPGVNPRVGDIFVMHSIAYDGKDYGHTGLVIEDSDGHSIKTIEQNVDGNADNLYVGGPARYRTRSFNGIIGWIRPPYENEILENKREETDMRDFFVITNSEYTFAGVHYAKGAVLHVSPTQKRAFWVIADQENFIKQVNKNIEYVEKNASPAFLQRIVEIYQVKFEGKNVH | soluble
MGSDKIHHHHHHMLEFLSQQKPKILIIGDFMVDNYTWCDCSRISPEAPVLIAKTLKEDKRLGGAANVYANLKSLGADVFALGVVGDDESGKFLQENLKGEFLIQKGRKTPFKNRIMAHNQQVLRLDEEDISEILLENELIALFDEKIKDFKAVVLSDYAKGVLTPKVCKAVIEKAKVLNIPVLVDPKGSDFNKYSGATLLTPNKKEALEALKFENLEGENLEKGIKKLKEDFSLRYSIITLSEAGIALFDEGLKIAPAKALEVYDVTGAGDSVIAVLAFCLANEIEIFKACELANEAAAVVVSKIGSVSVSFDEIKSFKRVDFEKKIKSKEELLVLLKQNNKKIVFTNGCFDIVHFGHIKYLDKAKRLGDVLIVGLNSDASVKRLKGESRPVNSEFQRACMLAAFYFVDFVVIFDEDTPLELISFLKPDILVKGADYKDKLVVGADIVSRVELIDFEEGFSTSKIIEKIKDKK | not soluble
MTPGVDGVNKTMLQARLAVELQILRDELLSGHYQPLPARRVYIPKSNGKLRPLGIPALRDRIVQRAMLMAMEPIWESDFHTLSYGFRPERSVHHAIRTVKLQLTDCGETRGRWVIEGDLSSYFDTVHHRLLMKAVRRRISDARFMTLLWKTIKAGHIDVGLFRAASEGVPQGGVISPLLSNIMLNEFDQYLHERYLSGKARKDRWYWNNSIQRGRSTAVRENWQWKPAVAYCRYADDFVLIVKGTKAQVEAIREECRGVLEGSLKLRLNMDKTKIPHVNDGFIFLGHRLIRKRSRYGEMRVVSTIPQEKARNFAASLTALLWKVRISGEILLGLEHHHHHH | soluble
MSKSESPKEPEQLRKLFIGGLSFETTDESLRSHFEQWGTLTDCVVMRDPNTKRSRGFGFVTYATVEEVDAAMNARPHKVDGRVVEPKRAVSREDSQRPGAHLTVKKIFVGGIKEDTEEHHLRDYFEQYGKIEVIEIMTDRGSGKKRGFAFVTFDDHDSVDKIVIQKYHTVNGHNCEVRKALSKQEMASASSSQRGR | soluble
MPSYTLTQLASAVRNCLESGFPGRYWVSAETSGVRVGISGHCYLELLDKDTSGSQVTARMKAMIWASDYATLSGRFQRETGETFDSGLHVLVLVSVSYHEQYGLSLRILDIDPSYTMGAMARKRKEIIEELRRQGLYDLNRSLSLPRPTQRIAIVSSGAAAGFEDFIAHLSHSAEHFCFYPVLFQAVMQGAQTEASVLGALERIAYHRDSFDVVVIIRGGGAVSELAAFDSLAIGQACARFPLPILTGIGHDRDETVVDLVAYRSLKTPTAVADFLVNCQREEWKLIDDLRSRAAEGLRMMMMYCHERLIQLSLRTPAILKSSVREEHHRIKSVEDRIRLAAKQRIAFGLQQLQIASRSLPALMKSELKQNTGQLDQVAARLPLLVTANLKNYNRRLETNEQAIRLLHPNATLRRGFAIVLKDDKAIRSHSELHKGDHLVAQFADGSVSAVVDQPQKGKH | not soluble
QIVPLFFQDVTNQPIEGMKPRSALEVEGRDVFIANGCVGCHSQMIRPLRAETERYGHYSVAGESVWDHPFLWGSKRTGPDLARIGGRYSDEWHRVHLNNPRDLVPASIMPAYPFLAGKHIDSTQTAKKLQVLRTLGTPYSDADITGAAAAVQGKTEMDALVAYLQGLGTLIKSKR | not soluble
MGSDKIHHHHHHVGALLSKITATDLASTLTGDPEALHVHLTLVARDVSIKGHTVKIHCHCLTVDGNGRVQPHRLAEFMRNAVVDYAIPRSKVADAKARDLKYNSTEATTELVERAKRSFTDLANTGEGGEMLLFLLAERFLKLPQILCKMDLKTDTRMHYHGADGVYAGVTPSGTLKLYWGESKIYKKVGDAIRDCLASLAPFLIEPEHEDAERERDLILLSDKADLTNSELTGALKRYFDRSSEMSTRVQYCGVALVGFDAPFYPASDVKVLADQIVDGSRRALSDWSDKIGARLAAEKLSDMEIQLFCIPLPSADGFRAAFLKAMGIKGG | not soluble
